Patent US20260001928A1 (CORTERIA PHARMACEUTICALS, priority 2022, published 2026)
*1 amine or outer side, *2 acyl side, *3 side chain or, on linkers, in order; H or OH if unused. Where no end group is shown, it is not given here. Side-chain parts run from the residue outwards. [ ]: non-standard residue; d: D form. The star is where a group is joined. C20 diacid = O=C(O)CCCCCCCCCCCCCCCCCCC(=O)*; C16 diacid = O=C(O)CCCCCCCCCCCCCCC(=O)*; γGlu = O=C(O)[C@H](CCC(=O)[*:2])N[*:1]; NMeI = CC[C@H](C)[C@H](NC)C(=O)O; AEEA = NCCOCCOCC(=O)O; Aib = CC(C)(N)C(=O)O

What follows are binders tested against human corticotropin-releasing factor 2a (CRF2a receptor) (human), Q13324 (assay: cell-based or functional assay).
Chain of human corticotropin-releasing factor 2a (CRF2a receptor) (human), Q13324 (Q13324 20-411): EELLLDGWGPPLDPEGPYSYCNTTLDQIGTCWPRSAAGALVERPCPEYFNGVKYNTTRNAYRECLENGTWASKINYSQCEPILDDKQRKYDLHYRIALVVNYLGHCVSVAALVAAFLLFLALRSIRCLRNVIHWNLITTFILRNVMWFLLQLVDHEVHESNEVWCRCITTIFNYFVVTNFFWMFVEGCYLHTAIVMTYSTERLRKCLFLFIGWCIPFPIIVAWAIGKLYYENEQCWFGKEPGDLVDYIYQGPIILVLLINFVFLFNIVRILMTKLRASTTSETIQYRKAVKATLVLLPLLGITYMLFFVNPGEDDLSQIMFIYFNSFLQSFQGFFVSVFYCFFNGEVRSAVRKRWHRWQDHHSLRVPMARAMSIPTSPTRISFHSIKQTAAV

EC50 [nM] (cAMP)	Binder
0.13	Ac-IVLSLD[dV]PIKLK([γGlu-γGlu-C20 diacid])KILLEQEKQKKQREQAETN[Aib]QILAQV-NH2 (SMILES CC[C@H](C)[C@H](NC(C)=O)C(=O)N[C@H](C(=O)N[C@@H](CC(C)C)C(=O)N[C@@H](CO)C(=O)N[C@@H](CC(C)C)C(=O)N[C@@H](CC(=O)O)C(=O)N[C@@H](C(=O)N1CCC[C@H]1C(=O)N[C@H](C(=O)N[C@@H](CCCCN)C(=O)N[C@@H](CC(C)C)C(=O)N[C@@H](CCCCNC(=O)CC[C@H](NC(=O)CC[C@H](NC(=O)CCCCCCCCCCCCCCCCCCC(=O)O)C(=O)O)C(=O)O)C(=O)N[C@@H](CCCCN)C(=O)N[C@H](C(=O)N[C@@H](CC(C)C)C(=O)N[C@@H](CC(C)C)C(=O)N[C@@H](CCC(=O)O)C(=O)N[C@@H](CCC(N)=O)C(=O)N[C@@H](CCC(=O)O)C(=O)N[C@@H](CCCCN)C(=O)N[C@@H](CCC(N)=O)C(=O)N[C@@H](CCCCN)C(=O)N[C@@H](CCCCN)C(=O)N[C@@H](CCC(N)=O)C(=O)N[C@@H](CCCNC(=N)N)C(=O)N[C@@H](CCC(=O)O)C(=O)N[C@@H](CCC(N)=O)C(=O)N[C@@H](C)C(=O)N[C@@H](CCC(=O)O)C(=O)N[C@H](C(=O)N[C@@H](CC(N)=O)C(=O)NC(C)(C)C(=O)N[C@@H](CCC(N)=O)C(=O)N[C@H](C(=O)N[C@@H](CC(C)C)C(=O)N[C@@H](C)C(=O)N[C@@H](CCC(N)=O)C(=O)N[C@H](C(N)=O)C(C)C)[C@@H](C)CC)[C@@H](C)O)[C@@H](C)CC)[C@@H](C)CC)C(C)C)C(C)C) [SEQ ID NO 243]
0.22	[NMeI]VLSLD[dV]PIKLK([γGlu-γGlu-C20 diacid])KILLEQEKQKEQREQAETN[Aib]QILAQV-NH2 (N-terminus assumed; SMILES CC[C@H](C)[C@H](NC)C(=O)N[C@H](C(=O)N[C@@H](CC(C)C)C(=O)N[C@@H](CO)C(=O)N[C@@H](CC(C)C)C(=O)N[C@@H](CC(=O)O)C(=O)N[C@@H](C(=O)N1CCC[C@H]1C(=O)N[C@H](C(=O)N[C@@H](CCCCN)C(=O)N[C@@H](CC(C)C)C(=O)N[C@@H](CCCCNC(=O)CC[C@H](NC(=O)CC[C@H](NC(=O)CCCCCCCCCCCCCCCCCCC(=O)O)C(=O)O)C(=O)O)C(=O)N[C@@H](CCCCN)C(=O)N[C@H](C(=O)N[C@@H](CC(C)C)C(=O)N[C@@H](CC(C)C)C(=O)N[C@@H](CCC(=O)O)C(=O)N[C@@H](CCC(N)=O)C(=O)N[C@@H](CCC(=O)O)C(=O)N[C@@H](CCCCN)C(=O)N[C@@H](CCC(N)=O)C(=O)N[C@@H](CCCCN)C(=O)N[C@@H](CCC(=O)O)C(=O)N[C@@H](CCC(N)=O)C(=O)N[C@@H](CCCNC(=N)N)C(=O)N[C@@H](CCC(=O)O)C(=O)N[C@@H](CCC(N)=O)C(=O)N[C@@H](C)C(=O)N[C@@H](CCC(=O)O)C(=O)N[C@H](C(=O)N[C@@H](CC(N)=O)C(=O)NC(C)(C)C(=O)N[C@@H](CCC(N)=O)C(=O)N[C@H](C(=O)N[C@@H](CC(C)C)C(=O)N[C@@H](C)C(=O)N[C@@H](CCC(N)=O)C(=O)N[C@H](C(N)=O)C(C)C)[C@@H](C)CC)[C@@H](C)O)[C@@H](C)CC)[C@@H](C)CC)C(C)C)C(C)C) [SEQ ID NO 242]
1.61	H-VLSLD[dV]PIKLK([γGlu-C16 diacid])KILLEQEKQKKQREQAETNKQILAQV-NH2 (SMILES CC[C@H](C)[C@H](NC(=O)[C@H](CCC(N)=O)NC(=O)[C@H](CCCCN)NC(=O)[C@H](CC(N)=O)NC(=O)[C@@H](NC(=O)[C@H](CCC(=O)O)NC(=O)[C@H](C)NC(=O)[C@H](CCC(N)=O)NC(=O)[C@H](CCC(=O)O)NC(=O)[C@H](CCCNC(=N)N)NC(=O)[C@H](CCC(N)=O)NC(=O)[C@H](CCCCN)NC(=O)[C@H](CCCCN)NC(=O)[C@H](CCC(N)=O)NC(=O)[C@H](CCCCN)NC(=O)[C@H](CCC(=O)O)NC(=O)[C@H](CCC(N)=O)NC(=O)[C@H](CCC(=O)O)NC(=O)[C@H](CC(C)C)NC(=O)[C@H](CC(C)C)NC(=O)[C@@H](NC(=O)[C@H](CCCCN)NC(=O)[C@H](CCCCNC(=O)CC[C@H](NC(=O)CCCCCCCCCCCCCCC(=O)O)C(=O)O)NC(=O)[C@H](CC(C)C)NC(=O)[C@H](CCCCN)NC(=O)[C@@H](NC(=O)[C@@H]1CCCN1C(=O)[C@H](NC(=O)[C@H](CC(=O)O)NC(=O)[C@H](CC(C)C)NC(=O)[C@H](CO)NC(=O)[C@H](CC(C)C)NC(=O)[C@@H](N)C(C)C)C(C)C)[C@@H](C)CC)[C@@H](C)CC)[C@@H](C)O)C(=O)N[C@@H](CC(C)C)C(=O)N[C@@H](C)C(=O)N[C@@H](CCC(N)=O)C(=O)N[C@H](C(N)=O)C(C)C) [SEQ ID NO 34]
0.56	Ac-IVLSLD[dV]PIKLK([γGlu-γGlu-C20 diacid])KILLEQEKQKEQREQAETN[Aib]QILAQV-NH2 (SMILES CC[C@H](C)[C@H](NC(C)=O)C(=O)N[C@H](C(=O)N[C@@H](CC(C)C)C(=O)N[C@@H](CO)C(=O)N[C@@H](CC(C)C)C(=O)N[C@@H](CC(=O)O)C(=O)N[C@@H](C(=O)N1CCC[C@H]1C(=O)N[C@H](C(=O)N[C@@H](CCCCN)C(=O)N[C@@H](CC(C)C)C(=O)N[C@@H](CCCCNC(=O)CC[C@H](NC(=O)CC[C@H](NC(=O)CCCCCCCCCCCCCCCCCCC(=O)O)C(=O)O)C(=O)O)C(=O)N[C@@H](CCCCN)C(=O)N[C@H](C(=O)N[C@@H](CC(C)C)C(=O)N[C@@H](CC(C)C)C(=O)N[C@@H](CCC(=O)O)C(=O)N[C@@H](CCC(N)=O)C(=O)N[C@@H](CCC(=O)O)C(=O)N[C@@H](CCCCN)C(=O)N[C@@H](CCC(N)=O)C(=O)N[C@@H](CCCCN)C(=O)N[C@@H](CCC(=O)O)C(=O)N[C@@H](CCC(N)=O)C(=O)N[C@@H](CCCNC(=N)N)C(=O)N[C@@H](CCC(=O)O)C(=O)N[C@@H](CCC(N)=O)C(=O)N[C@@H](C)C(=O)N[C@@H](CCC(=O)O)C(=O)N[C@H](C(=O)N[C@@H](CC(N)=O)C(=O)NC(C)(C)C(=O)N[C@@H](CCC(N)=O)C(=O)N[C@H](C(=O)N[C@@H](CC(C)C)C(=O)N[C@@H](C)C(=O)N[C@@H](CCC(N)=O)C(=O)N[C@H](C(N)=O)C(C)C)[C@@H](C)CC)[C@@H](C)O)[C@@H](C)CC)[C@@H](C)CC)C(C)C)C(C)C) [SEQ ID NO 241]
0.28	Ac-IVLSLD[dV]PIKLK([γGlu-γGlu-C20 diacid])KILLEQEKQKAQREQAETN[Aib]QILAQV-NH2 (SMILES CC[C@H](C)[C@H](NC(C)=O)C(=O)N[C@H](C(=O)N[C@@H](CC(C)C)C(=O)N[C@@H](CO)C(=O)N[C@@H](CC(C)C)C(=O)N[C@@H](CC(=O)O)C(=O)N[C@@H](C(=O)N1CCC[C@H]1C(=O)N[C@H](C(=O)N[C@@H](CCCCN)C(=O)N[C@@H](CC(C)C)C(=O)N[C@@H](CCCCNC(=O)CC[C@H](NC(=O)CC[C@H](NC(=O)CCCCCCCCCCCCCCCCCCC(=O)O)C(=O)O)C(=O)O)C(=O)N[C@@H](CCCCN)C(=O)N[C@H](C(=O)N[C@@H](CC(C)C)C(=O)N[C@@H](CC(C)C)C(=O)N[C@@H](CCC(=O)O)C(=O)N[C@@H](CCC(N)=O)C(=O)N[C@@H](CCC(=O)O)C(=O)N[C@@H](CCCCN)C(=O)N[C@@H](CCC(N)=O)C(=O)N[C@@H](CCCCN)C(=O)N[C@@H](C)C(=O)N[C@@H](CCC(N)=O)C(=O)N[C@@H](CCCNC(=N)N)C(=O)N[C@@H](CCC(=O)O)C(=O)N[C@@H](CCC(N)=O)C(=O)N[C@@H](C)C(=O)N[C@@H](CCC(=O)O)C(=O)N[C@H](C(=O)N[C@@H](CC(N)=O)C(=O)NC(C)(C)C(=O)N[C@@H](CCC(N)=O)C(=O)N[C@H](C(=O)N[C@@H](CC(C)C)C(=O)N[C@@H](C)C(=O)N[C@@H](CCC(N)=O)C(=O)N[C@H](C(N)=O)C(C)C)[C@@H](C)CC)[C@@H](C)O)[C@@H](C)CC)[C@@H](C)CC)C(C)C)C(C)C) [SEQ ID NO 244]
0.22	Ac-IVLSLD[dV]PIKLK([AEEA-AEEA-γGlu-C20 diacid])KILLEQEKQKAQREQAETN[Aib]QILAQV-NH2 (SMILES CC[C@H](C)[C@H](NC(C)=O)C(=O)N[C@H](C(=O)N[C@@H](CC(C)C)C(=O)N[C@@H](CO)C(=O)N[C@@H](CC(C)C)C(=O)N[C@@H](CC(=O)O)C(=O)N[C@@H](C(=O)N1CCC[C@H]1C(=O)N[C@H](C(=O)N[C@@H](CCCCN)C(=O)N[C@@H](CC(C)C)C(=O)N[C@@H](CCCCNC(=O)COCCOCCNC(=O)COCCOCCNC(=O)CC[C@H](NC(=O)CCCCCCCCCCCCCCCCCCC(=O)O)C(=O)O)C(=O)N[C@@H](CCCCN)C(=O)N[C@H](C(=O)N[C@@H](CC(C)C)C(=O)N[C@@H](CC(C)C)C(=O)N[C@@H](CCC(=O)O)C(=O)N[C@@H](CCC(N)=O)C(=O)N[C@@H](CCC(=O)O)C(=O)N[C@@H](CCCCN)C(=O)N[C@@H](CCC(N)=O)C(=O)N[C@@H](CCCCN)C(=O)N[C@@H](C)C(=O)N[C@@H](CCC(N)=O)C(=O)N[C@@H](CCCNC(=N)N)C(=O)N[C@@H](CCC(=O)O)C(=O)N[C@@H](CCC(N)=O)C(=O)N[C@@H](C)C(=O)N[C@@H](CCC(=O)O)C(=O)N[C@H](C(=O)N[C@@H](CC(N)=O)C(=O)NC(C)(C)C(=O)N[C@@H](CCC(N)=O)C(=O)N[C@H](C(=O)N[C@@H](CC(C)C)C(=O)N[C@@H](C)C(=O)N[C@@H](CCC(N)=O)C(=O)N[C@H](C(N)=O)C(C)C)[C@@H](C)CC)[C@@H](C)O)[C@@H](C)CC)[C@@H](C)CC)C(C)C)C(C)C) [SEQ ID NO 240]
